From patent publication US20180134781A1 (Regeneron, published 2018)
Residue numbers refer to the chain shown, from its start. Names and notes keep the numbering of the source. Values belong to the binder of their own block, whether it stands above or below them.

Columns and labels:
[1] = target: T1, hLDLR-mFc (negative control protein with the same mFc tag) (human, UniProt P01130 22-788); test: BLI (Octet HTX), hLDLR-mFc captured on AMC sensor
T1 construct: also called Irrelevant control; not shown: mFc tag ('the same mFc tag', mouse IgG2a Fc)
T1 sequence (P01130 22-788): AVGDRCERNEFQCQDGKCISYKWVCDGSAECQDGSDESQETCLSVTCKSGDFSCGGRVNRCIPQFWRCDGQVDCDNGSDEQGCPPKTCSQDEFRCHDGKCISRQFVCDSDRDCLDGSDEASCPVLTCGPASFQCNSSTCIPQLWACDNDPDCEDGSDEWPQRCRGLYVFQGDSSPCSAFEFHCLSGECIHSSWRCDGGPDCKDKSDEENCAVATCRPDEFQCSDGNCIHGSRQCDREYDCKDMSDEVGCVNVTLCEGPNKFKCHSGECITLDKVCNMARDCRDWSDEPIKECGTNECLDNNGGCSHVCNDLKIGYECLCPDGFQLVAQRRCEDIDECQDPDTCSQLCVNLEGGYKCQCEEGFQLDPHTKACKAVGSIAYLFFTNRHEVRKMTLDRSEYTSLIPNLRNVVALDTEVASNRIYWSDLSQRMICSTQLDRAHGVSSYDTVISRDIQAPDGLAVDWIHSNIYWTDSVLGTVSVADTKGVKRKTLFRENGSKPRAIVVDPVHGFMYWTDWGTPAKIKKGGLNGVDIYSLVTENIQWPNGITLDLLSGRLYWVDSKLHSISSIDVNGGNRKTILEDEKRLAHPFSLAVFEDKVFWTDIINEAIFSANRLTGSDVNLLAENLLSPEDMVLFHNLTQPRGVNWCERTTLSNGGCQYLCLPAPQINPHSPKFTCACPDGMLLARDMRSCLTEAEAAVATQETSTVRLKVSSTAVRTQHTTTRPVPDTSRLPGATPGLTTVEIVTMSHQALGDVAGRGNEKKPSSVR
Description: (§1) Binding of ANGPTL8 antibodies to human and monkey ANGPTL8 proteins was investigated using Bio-layer Interferometry with an Octet HTX biosensor platform (ForteBio, A Division of Pall Life Sciences). All experiments were performed at 25° C. in 10 mM HEPES pH 7.4, 150 mM NaCl, 0.05% v/v Surfactant Tween-20, and 1 mg/ml BSA with the reaction multiwell plate agitated at 1000 rpm. Approximately 1.6 nm of human ANGPTL8 produced with a C-terminal mouse IgG2a Fc tag (hANGPTL8-mFc; SEQ ID NO: 340) or cynomolgus monkey ANGPTL8 produced with a C-terminal mouse IgG2a Fc tag (MfANGPTL8-mFc; SEQ ID NO: 341) was captured onto anti-mFc (AMC) Octet biosensors by submerging the sensors into wells containing 10 μg/mL of each protein for 4 minutes. Under the same conditions a negative control protein with the same mFc tag (hLDLR-mFc) was also coupled to the AMC sensor. All four sensors, […] and one blank, were then submerged into wells containing 100 nM of different ANGPTL8 monoclonal antibodies or an isotype control for 4 minutes.

[2] = target: T2, human ANGPTL4 (human, UniProt Q9BY76 26-406, limits assumed); test: SPR
T2 construct: also called hANGPTL4
T2 sequence: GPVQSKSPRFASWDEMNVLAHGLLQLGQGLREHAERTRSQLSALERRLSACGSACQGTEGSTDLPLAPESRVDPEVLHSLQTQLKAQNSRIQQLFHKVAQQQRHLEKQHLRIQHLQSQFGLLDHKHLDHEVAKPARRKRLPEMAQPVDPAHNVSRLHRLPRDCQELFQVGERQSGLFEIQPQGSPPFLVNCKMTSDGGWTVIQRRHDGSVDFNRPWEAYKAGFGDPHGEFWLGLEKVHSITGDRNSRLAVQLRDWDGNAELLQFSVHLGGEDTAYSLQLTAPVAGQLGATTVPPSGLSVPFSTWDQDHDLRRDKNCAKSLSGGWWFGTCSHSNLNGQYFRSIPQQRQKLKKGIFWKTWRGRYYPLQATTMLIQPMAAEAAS

[3] = target: T3, mouse ANGPTL8 (mouse, UniProt Q8R1L8 16-198, limits assumed); test: SPR
T3 sequence (looked up): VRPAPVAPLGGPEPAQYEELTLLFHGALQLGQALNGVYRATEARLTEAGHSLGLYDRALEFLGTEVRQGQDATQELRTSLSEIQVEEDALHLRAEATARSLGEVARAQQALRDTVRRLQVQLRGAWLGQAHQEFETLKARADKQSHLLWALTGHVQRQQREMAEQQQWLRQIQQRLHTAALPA

[4] = target: T4, mouse ANGPTL3 (mouse, UniProt Q9R182 17-455, limits assumed); test: SPR
T4 sequence (looked up): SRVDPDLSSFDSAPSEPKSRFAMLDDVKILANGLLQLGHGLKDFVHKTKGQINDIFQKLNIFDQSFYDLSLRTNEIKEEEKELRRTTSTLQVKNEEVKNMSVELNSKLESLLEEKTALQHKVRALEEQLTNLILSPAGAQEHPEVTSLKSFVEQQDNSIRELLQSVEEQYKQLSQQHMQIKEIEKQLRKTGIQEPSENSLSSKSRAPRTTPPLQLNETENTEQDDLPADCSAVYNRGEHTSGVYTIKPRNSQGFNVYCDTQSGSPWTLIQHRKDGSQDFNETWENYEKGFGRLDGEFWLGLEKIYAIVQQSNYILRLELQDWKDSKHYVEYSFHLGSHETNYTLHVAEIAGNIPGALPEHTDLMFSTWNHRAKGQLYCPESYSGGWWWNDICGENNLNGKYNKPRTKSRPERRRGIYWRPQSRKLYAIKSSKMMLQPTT

[5] = target: T5, human ANGPTL3 (human, UniProt Q9Y5C1 17-460, limits assumed); test: SPR
T5 construct: also called hANGPTL3
T5 sequence: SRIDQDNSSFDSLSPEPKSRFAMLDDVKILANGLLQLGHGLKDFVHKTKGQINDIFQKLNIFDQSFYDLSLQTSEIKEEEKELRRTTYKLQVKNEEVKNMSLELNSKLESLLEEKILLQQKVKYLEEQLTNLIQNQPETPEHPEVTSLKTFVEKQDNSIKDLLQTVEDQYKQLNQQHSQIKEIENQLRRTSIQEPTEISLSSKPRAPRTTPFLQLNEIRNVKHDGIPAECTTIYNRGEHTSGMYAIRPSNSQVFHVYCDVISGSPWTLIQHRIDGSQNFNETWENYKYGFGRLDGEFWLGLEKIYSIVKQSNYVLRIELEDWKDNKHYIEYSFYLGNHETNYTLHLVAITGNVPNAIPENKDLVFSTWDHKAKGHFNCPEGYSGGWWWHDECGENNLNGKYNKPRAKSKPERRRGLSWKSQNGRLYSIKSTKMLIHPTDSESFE

[6] = target: T6, mouse ANGPTL4 (mouse, UniProt Q9Z1P8 24-410, limits assumed); test: SPR
T6 sequence (looked up): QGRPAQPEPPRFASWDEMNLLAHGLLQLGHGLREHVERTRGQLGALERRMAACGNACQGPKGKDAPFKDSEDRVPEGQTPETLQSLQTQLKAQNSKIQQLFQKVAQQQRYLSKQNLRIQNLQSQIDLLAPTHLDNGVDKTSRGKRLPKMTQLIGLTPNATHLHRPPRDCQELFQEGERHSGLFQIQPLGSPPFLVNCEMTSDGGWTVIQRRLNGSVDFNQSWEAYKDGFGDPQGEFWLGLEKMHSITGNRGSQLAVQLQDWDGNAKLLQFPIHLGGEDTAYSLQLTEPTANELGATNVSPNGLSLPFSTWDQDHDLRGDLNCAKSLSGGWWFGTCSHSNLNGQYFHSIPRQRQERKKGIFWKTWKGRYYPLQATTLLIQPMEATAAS

[7] = target: T7, monkey ANGPTL8 expressed with C-terminal mouse IgG2a Fc tag (cynomolgus monkey); test: BLI (Octet HTX), MfANGPTL8-mFc captured on AMC sensor
T7 construct: also called MfANGPTL8-mFc; mfANGPTL8-mFc
T7 chain: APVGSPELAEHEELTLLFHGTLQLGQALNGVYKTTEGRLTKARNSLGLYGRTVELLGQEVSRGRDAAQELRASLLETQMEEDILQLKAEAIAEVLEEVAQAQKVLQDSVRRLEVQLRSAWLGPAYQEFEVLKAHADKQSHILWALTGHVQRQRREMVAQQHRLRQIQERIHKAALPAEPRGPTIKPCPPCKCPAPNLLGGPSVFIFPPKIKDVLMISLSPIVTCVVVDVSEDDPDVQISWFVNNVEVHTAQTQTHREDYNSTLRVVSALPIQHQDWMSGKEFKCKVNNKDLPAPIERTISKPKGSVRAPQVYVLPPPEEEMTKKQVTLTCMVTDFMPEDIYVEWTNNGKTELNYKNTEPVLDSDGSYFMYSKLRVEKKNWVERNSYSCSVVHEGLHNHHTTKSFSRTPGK
Description: as §1

- binding result [2]: no binding
- binding result [3]: no binding
- binding result [4]: no binding
- binding result [5]: no binding
- binding result [6]: no binding
B1: H4H15341P (antibody, human IgG4, V domains shown)
VH: EVQLVESGGGLVQPGGSLRLSCAASGFTFNNHEMNWVRQAPGKGLEWVSYISSSGNTVTYADFLKGRFTISRDNAKNSLFLQMNSLRDEDTAVYYCARDHLSGTSPLSYWGQGTLVTVSS
VL: DIQMTQSPSSLSASVGDRVTITCQASQDINNYLNWFQQKPGKAPKLLIFDASNLETGVPSRFSGSGSGTDFTFTISSLQPEDIATYFCQQYENLPYTFGQGTKLEIK
notes: also called anti-hANGPTL8
- binding result [1]: no binding (tested: 0.03 nm at 100 nM mAb)

B2: H4H15361P2 (antibody, human IgG4, V domains shown)
VH: EVQLVESGGGLVQPGRSLRLSCTASGFSFGDNAMGWVRQAPGKGLEWVSFIRRKASGGTTEYAASVKGRFTISRDDSKSIAYLQMNSLKTEDTGVYYCTRGGAVYGYWGQGTLVTVSS
VL: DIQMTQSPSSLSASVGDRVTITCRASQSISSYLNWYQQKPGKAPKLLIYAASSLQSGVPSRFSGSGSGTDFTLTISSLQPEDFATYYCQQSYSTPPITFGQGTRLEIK
notes: human IgG4 Fc (H4H prefix)
- binding result [1]: no binding (tested: 0.03 nm at 100 nM mAb)

B3: H4H15345P (antibody, human IgG4, V domains shown)
VH: EVQLVESGGGLVQPGGSLRLSCAASGFTFSTYAMSWVRQAPGKGLEWVSVISGSFISTYYADSVKGRFTISRDNSKNTLYLQMTSLRAEDTAVYYCAKNSPFDYWGQGTLVTVSS
VL: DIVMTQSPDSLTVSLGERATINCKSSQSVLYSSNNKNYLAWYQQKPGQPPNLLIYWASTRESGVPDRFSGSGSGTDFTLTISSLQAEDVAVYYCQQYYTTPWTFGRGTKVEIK
notes: human IgG4 Fc (H4H prefix)
- binding result [1]: no binding (tested: 0.03 nm at 100 nM mAb)

B4: H4H15350P2 (antibody, human IgG4, V domains shown)
VH: EVQLVESGGGLVQPGGSLRLSCAASGFTFSSFRMTWVRQAPGKGLEWVANIKQDGSEKYYVDSVKGRFTISRDNAKNSLYLQMNSLRAEDTAVYYCARGGGIAAYWGQGTLVTVSS
VL: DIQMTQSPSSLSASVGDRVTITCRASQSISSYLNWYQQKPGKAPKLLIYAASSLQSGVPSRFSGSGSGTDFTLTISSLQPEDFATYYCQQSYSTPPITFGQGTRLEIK
notes: human IgG4 Fc (H4H prefix)
- binding result [1]: no binding (tested: 0.03 nm at 100 nM mAb)

B5: H4H15334P (antibody, human IgG4, V domains shown)
VH: QVQLQESGPGLVKPSQTLSLTCTVSGGSINSGGYYWNWIRQHPGKGLEWIGYIYYSGSTYFNPSLKSRVTISIDTSKNQFSLKLSSVTAADTAVYYCAREGIYAFDYWGQGTLVTVSS
VL: DIQMTQSPSSLSASVGDRVTITCRASQGIRNDLGWYQQKPGKAPKRLIYSASSLQSGVPSRFGGSGSGTEFTLTISSLQPEDFATYYCLQHNSYPWTFGQGTKVEIK
notes: human IgG4 Fc (H4H prefix)
- binding result [1]: no binding (tested: 0.03 nm at 100 nM mAb)
- binding result [7]: no binding (tested: background 0.03 nm at 100 nM mAb)

B6: H4H15314P2 (antibody, human IgG4, V domains shown)
VH: QVQLVQSGAEVKKPGASVKVSCKASGYTFTSYDINWVRQATGQGLEWMGWMNPNGDNTGYAQKFQGRVTMTGDTSISTAYMELSSLRSEDTAVYYCAREGIWGFDPWGQGTLVTVSS
VL: B5 VL with G28D, S50A, G63S, Y86F, S93T, Y94F, W96R
notes: human IgG4 Fc (H4H prefix)
- binding result [1]: no binding (tested: 0.03 nm at 100 nM mAb)
- binding result [7]: no binding (tested: background 0.03 nm at 100 nM mAb)

B7: H4H15318P (antibody, human IgG4, V domains shown)
VH: QVQLVESGGGVVQPGRSLRLSCTASGFTFGNFGIHWVRQAPGKGLEWVAVISYDGTDKFYADPVKGRFIISRDNSMNILYLQMNSLRAEDTAVYYCAKDGEMELRGYYYYYGMDVWGQGTTVTVSS
VL: DIQMTQSPSSVSASVGDRVTITCRASQGINTWLAWYQQKPGTAPKLLIFAASSLESGVPSRFSGSGFGTDFTLTISSLQSEDLATYFCQQVHSPPYTFGQGTKLEIK
notes: human IgG4 Fc (H4H prefix)
- binding result [1]: no binding (tested: 0.03 nm at 100 nM mAb)

B8: H4H15346P (antibody, human IgG4, V domains shown)
VH: EVQLVESGGGLVQPGGSLRLSCAASGFTFSNYAMSWVRQAPGKGLEWVSTISDTGGSTYYADSVKGRFALSRDNSRNTLYLQMNSLRAEDTAVYYCAKEGPPDYWGQGTLVTVSS
VL: EIVLTQSPATLSLSPGERATLSCRTSQSVSIYLAWYQQKPGQAPRLLIYDASKRATGIPARFSGRGSGTDFTLTISSLEPEDFAVYYCQQRSNWPLTFGQGTRLEIK
notes: human IgG4 Fc (H4H prefix)
- binding result [1]: no binding (tested: 0.03 nm at 100 nM mAb)
- binding result [7]: no binding (tested: background 0.03 nm at 100 nM mAb)

B9: H4H15323P (antibody, human IgG4, V domains shown)
VH: EVQLVESGGGLVQPGGSLRLSCAASGFTFSSYAMTWVRQAPGKGLEWVSAISGSGGSTYYTDSVKGRFTLSRDNSKNTLYLQMNSLRAEDTAVYYCAKSDYSNTIYWYYGMDVWGQGTTVTVSS
VL: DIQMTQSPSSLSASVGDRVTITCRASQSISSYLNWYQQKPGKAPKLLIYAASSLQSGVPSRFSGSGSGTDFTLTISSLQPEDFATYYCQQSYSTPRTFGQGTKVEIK
notes: human IgG4 Fc (H4H prefix)
- binding result [1]: no binding (tested: 0.03 nm at 100 nM mAb)

B10: H4H15354P2 (antibody, human IgG4, V domains shown)
VH: QVQLVESGGGVVQPGRSLRLSCTASGFTFNNYGIHWVRQAPGKGLEWVAVISYDGSNKFYAESVRGRFTISRDNSRNTLFLQMISLRGEDSAVYYCAKDRPYYDILTAHYPSDYYFYAMDVWGHGTTVTVSS
VL: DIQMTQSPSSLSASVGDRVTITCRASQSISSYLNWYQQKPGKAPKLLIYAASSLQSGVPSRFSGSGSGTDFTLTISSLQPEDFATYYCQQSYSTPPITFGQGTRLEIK
notes: human IgG4 Fc (H4H prefix)
- binding result [1]: no binding (tested: 0.03 nm at 100 nM mAb)
- binding result [7]: no binding (tested: background 0.03 nm at 100 nM mAb)
